Measured values from patent US12643954B2, “Anti-CD36 antibodies and their use to treat cancer” (ONA Therapeutics, S.L., priority 2020, dated 2026).
Read-outs that look alike come from different tables or passages of the source.

Tests used:
CD36 = CD36 (Homo sapiens, UniProt P16671); experiment: Surface plasmon resonance (Biacore T200) affinity for human CD36; format: binding; conditions: SPR
Method: The affinity of ONA-0-v1, 1G04, and a commercial anti-CD36 antibody (JC63.1) for human CD36 was also measured by surface plasmon resonance (SPR) using a Biacore T200. 1G04 was analysed using a protein A capture surface, with a capture range of 100-150 RU and an antigen titration range of 3.3-333 nM. The mouse antibodies ONA-0-V1 and the commercial anti-CD36 antibody were analysed using an anti-mouse IgA capture surface, with a capture range of 160-180 RU and an antigen titration range of 3.3-333 nM. For each single analysis cycle a titration of five antigen concentrations were injected over the captured antibody and then the dissociation of the complex was measured. A double referencing method was employed in which data from the reference surfaces where no antibody was captured (fc 1 and 3 respectively) were subtracted from the antibody bound capture surface (fc 2 and 4). Blank injections of buffer were run for every antigen titration cycle and then subtracted from analyte injection cycles, to correct for small changes in the antibody capture surface density. All analysis was performed at 25° C., and the sample rack was kept at 6° C. during experimental runs. Each experiment was run at least three times with the mean binding constants generated from at least two independent assays reported. All analysis was performed in PBS-T running buffer at 40 μL/min.

FaDu cells = experiment: FaDu orthotopic mouse model of oral cancer metastasis; format: in vivo
Method: NOD scid gamma (NSG) (NOD.Cg-Prkdc^scidII2rg^tm1Wj1/SzJ) mice were purchased from Charles River and crossed in-house. All mice were housed under a regimen of 12h light/12h dark cycles and SPF conditions, and all procedures were evaluated and approved by the CEEA (Ethical Committee for Animal Experimentation) from the Government of Catalunya. SCC intra-tongue injection was performed as previously described (Oskarsson et al., 2014; Nieman et al., 2011). Briefly, mice were anesthetized by intraperitoneal injection with a mixture of 50 mg per kg of ketamine and 0.5 mg per kg of medetomidin, and SCC cells resuspended in 30 μl PBS were injected into each mouse tongue with a BD ultra-fine 6 mm needle. Mice were monitored for the luciferase bioluminescent signal immediately after injection (TO) and once weekly thereafter with a Xenogen IVIS Imaging System-100 (Caliper Life Sciences). Briefly, animals were injected by retro-orbital injection with 50 μl of D-luciferin (Promega) diluted in 1×PBS at 5 mg ml^−1. Continuous administration of isofluorane gas was provided to ensure anesthetizing animals during imaging. Data was quantified with the Living Image software version 4.4 (Caliper Life Sciences). Quantifications were calculated with unsaturated pixels. Color scale minimum and maximum values are shown in pictures.
Studies on the combination of the effects of the ONA-0-v1 anti-CD36 antibody, both with and without cisplatin, were performed in NSG mice (immuno-deficient). The studies included both male and female mice. All mice were inoculated with commercially available FaDu (ATCC) cancer cells, transduced with a retroviral vector expressing luciferase and the green fluorescent protein (Luc-GFP). FaDu cells were derived from a squamous cell carcinoma (i.e., from an oral cancer). Prior to inoculation, the FaDu cells were cultured in a humidified incubator at 37° C. with 5% CO2, and were grown in EMEM (LONZA) supplemented with 5 μg ml^−1 penicillin/streptomycin and 10% FBS (GIBCO).
For each mouse, 100,000 FaDu cells were inoculated via orthotopic injection.
Treatment of the inoculated mice began nine days after inoculation with the cancer cells. Inoculated mice were divided into four distinct treatment groups.
Antibody treatments were administered via intraperitoneal (i.p.) injection daily at a dose of 1 mg/kg. Cisplatin was administered twice weekly at a dose of 2 mg/kg (Groups 2 and 4). […] During the course of treatment, mice were observed once weekly using an in vivo imaging system (IVIS). Further, mouse body weight was measured twice weekly to update appropriate dosage amounts. At the end of the treatment period, the mice were sacrificed, and organs and tissues were collected for performance of immunohistochemistry analysis.

HCT-116 cells = experiment: HCT-116 orthotopic mouse model of colon cancer (Example 8); format: in vivo
Method: Studies of the effects of the ONA-0-v1 anti-CD36 antibody on colon cancer were performed in BALB/c nude mice (immuno-deficient). The studies included only female mice. All mice were inoculated with commercially available HCT-116 (ATCC) cancer cells, transduced with a retroviral vector expressing luciferase. HCT-116 cells were derived from a human colorectal carcinoma (i.e., from a colon cancer). Prior to inoculation, the HCT-116 cells were cultured in a humidified incubator at 37° C. with 5% CO2, and were grown in McCoy's 5A medium supplemented with 5 μg ml^−1 penicillin/streptomycin and 10% FBS (GIBCO).
For each mouse, 2×10^6 HCT-116 cells were inoculated via orthotopic injection. Each mouse was imaged after inoculation and one week later and liver metastasis were confirmed by ex vivo luminescence prior to start of treatment. Treatment began 14 days after inoculation with the HCT-116 cells. Inoculated mice were divided into one of two treatment groups: vehicle injection control (n=10) or ONA-0-v1 treatment (n=10). Antibody treatments were administered via intraperitoneal (i.p.) injection daily at a dose of 3 mg/kg, while control mice received an equal volume of vehicle on the same schedule. At 7, 14, and 21 days after start of treatment, all mice were imaged via IVIS. Mice were sacrificed at the end of the treatment period (day 25). Upon sacrifice, organs and tissues were collected for performance of necropsy, ex-vivo IVIS, and histopathology.

[1] = antibody alone 1 mg/kg i.p. daily
[2] = antibody in combination with cisplatin

Chain of CD36 (P16671 whole entry): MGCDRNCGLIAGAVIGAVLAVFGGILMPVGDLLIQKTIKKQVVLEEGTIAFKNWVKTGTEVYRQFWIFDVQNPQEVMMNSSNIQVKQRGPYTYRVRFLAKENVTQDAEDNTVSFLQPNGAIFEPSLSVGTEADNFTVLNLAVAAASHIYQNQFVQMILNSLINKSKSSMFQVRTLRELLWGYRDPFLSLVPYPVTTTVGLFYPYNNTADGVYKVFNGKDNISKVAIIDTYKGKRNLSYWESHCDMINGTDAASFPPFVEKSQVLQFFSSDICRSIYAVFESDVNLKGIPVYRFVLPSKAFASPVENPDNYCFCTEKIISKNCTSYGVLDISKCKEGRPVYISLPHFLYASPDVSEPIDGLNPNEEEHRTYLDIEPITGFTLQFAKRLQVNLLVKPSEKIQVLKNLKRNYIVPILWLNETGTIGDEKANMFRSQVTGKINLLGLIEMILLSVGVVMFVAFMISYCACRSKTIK

B1: ONA-0-v1: murine IgA anti-CD36 antibody; heavy chain SEQ ID NO: 5, light chain SEQ ID NO: 7 (antibody)
heavy: QVQLKQSGADLVRPGASVKLSCKASGYTFTDYYINWVKQRPGQGLEWIARIYPGSGNTYYNEKFKGKATLTAEKSSSTAYMQLSSLTSEDSAVYFCARGIGGGFGMDYWGQGTSVTVSSESARNPTIYPLTLPPVLCSDPVIIGCLIHDYFPFGTMNVTWGKSGKDITTVNFPPALASGGRYTMSSQLTLPAVECPEGESVKCSVQHDSNPVQELDVNCSPTPPPPITIPSCQPSLSLQRPALEDLLLGSDASITCTLNGLRNPEGAAFTWEPSTGKDAVQKKAAQNSCGCYSVSSVLPGCAERWNSGASFKCTVTHPESGTLTGTIAKVTVNTFPPQVHLLPPPSEELALNELLSLTCLVRAFNPKEVLVRWLHGNEELSPESYLVFEPLKEPGEGATTYLVTSVLRVSAETWKQGDQYSCMVGHEALPMNFTQKTIDRLSGKPTNVSVSVIMSEGDGICY
light: SIVMTQTPKFLLVSAGDRITITCKASQSVSDDVAWYQQKPGQSPKLLIYYASNRYTGVPDRFTGSGYGTDFTFTISTVQAEDLAVYFCQQDYSSPLTFGAGTKLEIKRADAAPTVSIFPPSSEQLTSGGASVVCFLNNFYPKDINVKWKIDGSERQNGVLNSWTDQDSKDSTYSMSSTLTLTKDEYERHNSYTCEATHKTSTSPIVKSFNRNEC
modifications: ONA-0-v1 heavy chain; ONA-0-v1 light chain
ka (CD36; 1-to-1 model, 25° C.): 632000 M⁻¹ s⁻¹
kd (CD36; 1-to-1 model, 25° C.): 0.00354 s⁻¹
ka1 (CD36; 2-state model): 108000 M⁻¹ s⁻¹
ka2 (CD36; 2-state model): 0.000558 s⁻¹
kd1 (CD36; 2-state model): 0.0023 s⁻¹
kd2 (CD36; 2-state model): 0.000393 s⁻¹
ka2 (CD36; bivalent model): 6.74E−05 1/RUs
kd1 (CD36; bivalent model): 0.00259 s⁻¹
kd2 (CD36; bivalent model): 0.000527 s⁻¹
ka1 (CD36; bivalent model, first ka1 column): 33400 M⁻¹ s⁻¹
Kd (CD36; bivalent model, read-out: KD1): 77.3 nM
Kd (CD36; bivalent model, read-out: KD2): 986 nM
tolerability over the course of treatment (FaDu cells; NSG mice): well-tolerated
effect on mouse body weight relative to isotype control (FaDu cells; antibody alone): did not have any effects
effect on platelet count relative to isotype control (FaDu cells; antibody alone): did not have any effects
growth of lymph node metastases (IVIS relative intensity) (FaDu cells; [1]): able to inhibit growth
inhibition of lymph node metastatic tumor growth relative to IgA isotype control (ratio of IVIS intensity end/start) (FaDu cells; [1]): greater than 50%
effect on cisplatin-mediated weight loss and decrease in platelet count (FaDu cells; [2]): did not significantly enhance
growth of lymph node metastases (IVIS relative intensity) (FaDu cells; [2]): almost complete inhibition
mice in which metastasis into lymph nodes was prevented (FaDu cells; antibody in combination with cisplatin, eight tested mice): five of the eight
mice in which metastasis into lymph nodes was prevented (FaDu cells; single agent, eight tested mice per group): one of the eight
effect on primary tumor (IVIS imaging and H&E staining) (FaDu cells; single agent, antibody 1 mg/kg i.p. daily, cisplatin 2 mg/kg twice weekly): did not have a statistically significant effect
in vivo total tumor bioluminescence over time (HCT-116 cells; 3 mg/kg i.p. daily, day 21): reduced the growth of the tumor
ex vivo luminescence, kidney (HCT-116 cells; IVIS at sacrifice): 1.08*10^6
ex vivo luminescence, liver (HCT-116 cells; IVIS at sacrifice): 9.02*10^7
ex vivo luminescence, lung (HCT-116 cells; IVIS at sacrifice): 1.24*10^6
ex vivo luminescence, spleen (HCT-116 cells; IVIS at sacrifice): 1.79*10^8
body weight as percent of starting body weight (HCT-116 cells; day 18): 91.1%
ex vivo primary tumor bioluminescence, average radiance (HCT-116 cells; day 25): 1.51*10^10
percentage of mice with tumors in their liver (HCT-116 cells; ex vivo luminescence): 60%
percentage of mice with tumors in their lungs (HCT-116 cells; ex vivo luminescence): 60%
